In paper PMC7673487 (International Journal of Nanomedicine, 2020):

Columns and labels:
[1] = biological target: T1, recombinant rat NRP-1 protein (rat, UniProt Q9QWJ9 22-855); assay: SPR
T1 sequence (looked up): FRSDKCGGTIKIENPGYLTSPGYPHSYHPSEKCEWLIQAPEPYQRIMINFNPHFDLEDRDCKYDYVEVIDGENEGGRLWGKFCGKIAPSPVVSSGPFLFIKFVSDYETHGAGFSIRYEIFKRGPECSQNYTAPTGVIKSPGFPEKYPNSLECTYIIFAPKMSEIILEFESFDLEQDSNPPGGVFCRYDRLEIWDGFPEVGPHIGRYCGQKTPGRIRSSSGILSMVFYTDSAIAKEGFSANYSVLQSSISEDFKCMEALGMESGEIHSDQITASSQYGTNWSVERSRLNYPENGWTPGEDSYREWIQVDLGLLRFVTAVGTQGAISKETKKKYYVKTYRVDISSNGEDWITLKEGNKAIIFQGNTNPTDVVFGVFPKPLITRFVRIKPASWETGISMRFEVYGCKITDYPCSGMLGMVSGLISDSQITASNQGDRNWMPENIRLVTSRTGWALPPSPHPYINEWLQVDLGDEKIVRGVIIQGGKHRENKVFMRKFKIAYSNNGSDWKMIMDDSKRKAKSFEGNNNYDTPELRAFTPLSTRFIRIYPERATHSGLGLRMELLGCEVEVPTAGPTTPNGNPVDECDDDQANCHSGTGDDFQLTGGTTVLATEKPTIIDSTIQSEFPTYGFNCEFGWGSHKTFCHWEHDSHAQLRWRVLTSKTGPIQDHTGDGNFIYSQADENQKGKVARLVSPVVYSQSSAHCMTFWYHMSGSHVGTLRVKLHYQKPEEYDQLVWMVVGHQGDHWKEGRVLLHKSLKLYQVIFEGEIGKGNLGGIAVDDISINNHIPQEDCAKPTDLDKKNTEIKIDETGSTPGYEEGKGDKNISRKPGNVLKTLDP

[2] = biological target: T2, recombinant human NRP-1 protein (human, UniProt O14786 22-856); assay: SPR
T2 sequence (looked up): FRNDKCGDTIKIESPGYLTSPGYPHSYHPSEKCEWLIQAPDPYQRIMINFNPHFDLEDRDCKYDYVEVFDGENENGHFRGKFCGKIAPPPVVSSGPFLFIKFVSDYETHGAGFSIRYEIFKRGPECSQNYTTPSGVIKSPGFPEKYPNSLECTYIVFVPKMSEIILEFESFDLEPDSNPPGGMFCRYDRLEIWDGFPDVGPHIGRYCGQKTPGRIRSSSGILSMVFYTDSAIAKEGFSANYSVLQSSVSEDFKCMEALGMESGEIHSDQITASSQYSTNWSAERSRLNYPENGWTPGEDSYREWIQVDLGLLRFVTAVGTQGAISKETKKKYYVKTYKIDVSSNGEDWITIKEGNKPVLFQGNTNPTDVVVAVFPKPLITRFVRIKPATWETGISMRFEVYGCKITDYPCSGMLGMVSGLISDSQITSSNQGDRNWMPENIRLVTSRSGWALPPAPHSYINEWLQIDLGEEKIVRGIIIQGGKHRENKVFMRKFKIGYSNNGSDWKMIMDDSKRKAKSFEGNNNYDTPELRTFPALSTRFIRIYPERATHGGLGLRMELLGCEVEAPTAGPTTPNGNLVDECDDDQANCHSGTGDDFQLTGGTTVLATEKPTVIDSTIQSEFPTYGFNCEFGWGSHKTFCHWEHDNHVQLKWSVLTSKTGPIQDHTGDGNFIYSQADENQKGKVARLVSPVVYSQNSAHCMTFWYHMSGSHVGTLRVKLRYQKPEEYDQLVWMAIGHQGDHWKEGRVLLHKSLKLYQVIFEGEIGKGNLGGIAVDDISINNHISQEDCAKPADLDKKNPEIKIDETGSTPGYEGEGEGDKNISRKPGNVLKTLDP

Binder: KDKPPR [KDKPPR peptide]
- Kd [1]: 8.7 µM
- Kd [2]: 0.5 µM
